Results: US8975044B2, “Polynucleotides encoding for frizzled-binding agents and uses thereof” (OncoMed Pharmaceuticals, Inc., priority 2008, dated 2015)
Where a chain is given by its changes, count along the chain named. Entries after “also recorded” stand apart in the source; their conditions may differ.

T1: FZD8 (Homo sapiens, UniProt Q9H461, D83Q/P82S)
T1 construct: N-terminus of the Fri domain of FZD8 in turn fused to the transmembrane domain and intracellular domain of CD4 protein; expressed in transfected cells; host or cells: HEK293
T1 sequence (Q9H461 28-158 P82S/D83Q): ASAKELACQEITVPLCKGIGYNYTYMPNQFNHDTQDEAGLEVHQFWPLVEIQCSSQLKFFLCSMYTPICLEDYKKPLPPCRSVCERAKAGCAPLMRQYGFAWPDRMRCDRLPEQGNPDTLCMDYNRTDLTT

T2: FZD8 (Homo sapiens, UniProt Q9H461, S109Q)
T2 construct: N-terminus of the Fri domain of FZD8 in turn fused to the transmembrane domain and intracellular domain of CD4 protein; expressed in transfected cells; host or cells: HEK293
T2 sequence (Q9H461 28-158 S109Q): T1 sequence (Q9H461 28-158 P82S/D83Q) with S55P, Q56D, S82Q

B1: 18R5: human anti-FZD antibody; VH SEQ ID NO:10 (as 18R8), VL SEQ ID NO:14; binds FZD1, 2, 5, 7, 8 (antibody, V domains shown)
VH: EVQLVESGGGLVQPGGSLRLSCAASGFTFSHYTLSWVRQAPGKGLEWVSVISGDGSYTYYADSVKGRFTISSDNSKNTLYLQMNSLRAEDTAVYYCARNFIKYVFANWGQGTLVTVSS
VL: DIELTQPPSVSVAPGQTARISCSGDNIGSFYVHWYQQKPGQAPVLVIYDKSNRPSGIPERFSGSNSGNTATLTISGTQAEDEADYYCQSYANTLSLVFGGGTKLTVLG
modifications: 18R5/18R8 heavy chain variable region (VH); 18R5 light chain variable region (VL)
B2: 18R8: human anti-FZD antibody from phage display; VH SEQ ID NO:10, VL SEQ ID NO:12; binds FZD1, 2, 5, 7, 8 (antibody, V domains shown)
VH: B1 VH
VL: DIELTQPPSVSVAPGQTARISCSGDKLGKKYASWYQQKPGQAPVLVIYEKDNRPSGIPERFSGSNSGNTATLTISGTQAEDEADYYCSSFAGNSLEVFGGGTKLTVLG
modifications: 18R5/18R8 heavy chain variable region (VH); 18R8 light chain variable region (VL)
B3: 44R24: anti-FZD5/8 IgG antibody, VH SEQ ID NO:85, VL SEQ ID NO:86; ATCC deposit no. PTA-10311 (antibody, V domains shown)
VH: EVQLVESGGGLVQPGGSLRLSCAASGFTFSSYYITWVRQAPGKGLEWVSTISYSSSNTYYADSVKGRFTISRDNSKNTLYLQMNSLRAEDTAVYYCARSIVFDYWGQGTLVTVSS
VL: DIELTQPPSVSVAPGQTARISCSGDALGNRYVYWYQQKPGQAPVLVIPSGIPERFSGSNSGNTATLTISGTQAEDEADYYCGSWDTRPYPKYVFGGGTKLTVLG
modifications: 44R24 VH; 44R24 VL
notes: ATCC deposit no; PTA-10311

Columns and labels:
Muc16 = Muc16 immunohistochemistry on treated OMP-PN13 tumors; format: in vivo, NOD/SCID mice; settings: 3 doses of 10 mg/kg IP over 12 days; vs LZ1
Protocol: Frozen OMP-PN13 tumor cells that have been passaged twice in mice were obtained from Oncomed's tumor bank. They were thawed and injected subcutaneously into the left flank of NOD/SCID mice immediately following thawing. ˜ 25,000 viable cells were injected per animal. The mice were monitored weekly for tumor growth. After their onset, the size of the tumors was measured once weekly by caliper. 200-300 mm^3 tumor-bearing mice were dispatched in treatment groups that each contained 5 animals. […] Ab treatment was initiated the day after randomization. LZ1 was used as the negative control Ab. 3 doses of 10 mg/kg of Ab were administered via intra-peritoneal injection over a 12-day period. Mice were euthanized 24 hours after the last injection. Tumor, duodenum and liver were harvested.
Tumor tissues were fixed in formalin for paraffin embedding and sectioning. Muc16 detection was performed by immunohistochemical (1HC) to monitor the appearance of Mucin-producing cells. Mucins are specific for a subtype of differentiated cells in the pancreas, and as such are used as differentiation markers in the tumor model.
Formalin-fixed, paraffin-embedded (FFPE) sections were de-parrafinized. The slides were first de-parrafinized by sequential treatment with xylene twice for 5 minutes each. […]

Wnt signaling pathway = assay: 8xTCF luciferase reporter assay in STF293 cells with Wnt3A-conditioned medium; format: cell-based, human; settings: range of antibody concentrations, 18 hours
Protocol: STF293 cells were cultured in DMEM supplemented with antibiotics and 10% FCS. The STF293 cells are 293 cells in which the following have been stably integrated: (1) an 8×TCF Luc reporter vector containing […] of the TCF binding site linked to a promoter upstream of a firefly luciferase reporter gene to measure canonical Wnt signaling levels (Gazit et al., 1999, Oncogene 18:5959-66) and (2) a Renilla luciferase reporter (Promega; Madison, Wis.) as an internal control for transfection efficiency. The cells were added to cultures plates. The FZD antibodies to be tested (or no antibodies) were added. The cells were then incubated in the presence or absence of Wnt3A-conditioned medium that had been prepared from L cells that stably express Wnt3a (ATCC CRL-2647) or control conditioned media from L cells not overexpressing Wnt3A (ATCC cell line CRL-2648). After overnight incubation, luciferase levels were measured using a dual luciferase assay kit (Promega; Madison, Wis.) with firefly luciferase activity normalized to Renilla luciferase activity.
The ability of the 18R8 and 18R5 antibodies to inhibit Wnt-induced pathway activation was thus determined. STF293 cells were treated with different concentrations of 18R8 or 18R5 IgG antibodies and Wnt3A-conditioned medium was added. The cells were assayed 18 hours later using the dual luciferase assay kit.

FZD8 [1] = target: T1, FZD8; assay: Epitope mapping by FACS on FZD8 Fri domain variants on HEK293 cells; format: binding; settings: amino acid residues 82-83 mutated from PD to SQ
Protocol: (§1) To identify the FZD epitope recognized by the 18R8 IgG antibody, epitope mapping was performed. Flow cytometry analysis of cell surface expressed FZD was utilized to measure antibody binding. Mammalian expression plasmid vectors comprising a CMV promoter upstream of polynucleotides that encode an N-terminal signal sequence FLAG epitope tag fused to the N-terminus of the Fri domain of FZD8 in turn fused to the transmembrane domain and intracellular domain of CD4 protein were generated by standard recombinant technology. This expression construct allows expression of the FZD8 Fri domain on the cell surface, as well as expression of a FLAG epitope tag to monitor expression. Site-direct mutagenesis was then used to modify selected amino acids within the extracellular domain of FZD. HEK293 cells were co-transfected with expression vectors encoding the FZD and the transfection marker GFP. Forty-eight hours post-transfection, cells were collected in suspension and incubated on ice with anti-FZD antibody or control IgG to detect background antibody binding. The cells were washed and primary antibodies detected with anti-antibody secondary antibodies conjugated to a fluorescent chromophore. Labeled cells were then analyzed by flow cytometry to measure the binding of anti-FZD antibody to cell surface FZD.
(§2) Epitope mapping for the anti-FZD antibody 44R24 was performed in a manner similar to that described above in Example 5 for the antibodies 18R8 and 18R5. The ability of 44R24 to bind to a similar epitope as 18R8 was assessed by flow cytometry using a series of amino acid variants of FZD8 previously shown to disrupt binding of 18R8 (see Example 5 and FIGS. 6 and 7).

FZD8 [2] = target: T2, FZD8; assay: as above; format: binding; settings: amino acid 109S changed to 109Q
Protocol: as §1, §2

Molecule	Muc16 staining (Muc16)	inhibition of Wnt3A-induced TCF signaling (Wnt signaling pathway)	binding to FZD8 variant (FZD8 [1])	binding to FZD8 variant (FZD8 [2])
B1	higher levels of staining	Greater inhibition; also recorded: inhibit Wnt signaling		
B2		inhibit Wnt signaling	largely unaffected	no appreciable effect
B3	slightly higher than in the LZ1-treated tumors			
